Assays:
HeLa Kyoto [1] = assay: melting temperature (median over replicates), in situ; higher = more thermally stable
HeLa Kyoto [2] = assay: solubility change mitosis vs G1/S (difference of NP-40 vs SDS log2 ratios) (log2 ratio difference); higher = more soluble in mitosis
HeLa Kyoto [3] = assay: solubility in G1/S (NP-40 vs SDS abundance) (log2 ratio); higher = more soluble; settings: cell cycle stage: G1/S
HeLa Kyoto [4] = assay: thermal stability score vs G1/S (z-score of summed log2 fold changes over temperatures); higher = more thermally stable than in G1/S
[5] = cell cycle stage: early G1 (4.5 h after nocodazole release)
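Throughout, for melting temperature (median over replicates), in situ: HeLa Kyoto cells synchronized by double thymidine or nocodazole block, proteins quantified by TMT10plex mass spectrometry, three independent biological replicates.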
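Throughout, for solubility change mitosis vs G1/S (difference of NP-40 vs SDS log2 ratios): synchronized HeLa Kyoto cells (double thymidine block for G1/S, nocodazole release for mitosis), protein amounts in NP-40 versus SDS lysates quantified by mass spectrometry, three biological replicates.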
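Throughout, for solubility in G1/S (NP-40 vs SDS abundance): HeLa Kyoto cells arrested at G1/S by double thymidine block, proteins quantified by TMT10plex mass spectrometry in mild NP-40 versus SDS extracts, three biological replicates.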
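Throughout, for thermal stability score vs G1/S (z-score of summed log2 fold changes over temperatures): synchronized HeLa Kyoto cells, proteins quantified by TMT10plex mass spectrometry, three biological replicates, mitosis taken 0.5 h after nocodazole release, G1/S directly after double thymidine block.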

Sequence | melting temperature (HeLa Kyoto [1]; cell cycle stage: G1/S) | melting temperature (HeLa Kyoto [1]; cell cycle stage: mitosis) | solubility change mitosis (log2) (HeLa Kyoto [2]) | solubility in G1/S (log2) (HeLa Kyoto [3]) | thermal stability score (HeLa Kyoto [4]; [5]) | thermal stability score (HeLa Kyoto [4]; cell cycle stage: mitosis)
MKLKQRVVLLAILLVIFIFTKVFLIDNLDTSAANREDQRAFHRMMTGLRVELAPKLDHTLQSPWEIAAQWVVPREVYPEETPELGAVMHAMATKKIIKADVGYKGTQLKALLILEGGQKVVFKPKRYSRDHVVEGEPYAGYDRHNAEVAAFHLDRILGFHRAPLVVGRFVNLRTEIKPVATEQLLSTFLTVGNNTCFYGKCYYCRETEPACADGDIMEGSVTLWLPDVWPLQKHRHPWGRTYREGKLARWEYDESYCDAVKKTSPYDSGPRLLDIIDTAVFDYLIGNADRHHYESFQDDEGASMLILLDNAKSFGNPSLDERSILAPLYQCCIIRVSTWNRLNYLKNGVLKSALKSAMAHDPISPVLSDPHLDAVDQRLLSVLATVKQCTDQFGMDTVLVEDRMPLSHL [FAM20B] | 51.8 °C | 53.3 °C | 0.0415 | -0.162 | 2.65 | 2.53
MKLSLTKVVNGCRLGKIKNLGKTGDHTMDIPGCLLYTKTGSAPHLTHHTLHNIHGVPAMAQLTLSSLAEHHEVLTEYKEGVGKFIGMPESLLYCSLHDPVSPCPAGYVTNKSVSVWSVAGRVEMTVSKFMAIQKALQPDWFQCLSDGEVSCKEATSIKRVRKSVDRSLLFLDNCLRLQEESEVLQKSVIIGVIEGGDVMEERLRSARETAKRPVGGFLLDGFQGNPTTLEARLRLLSSVTAELPEDKPRLISGVSRPDEVLECIERGVDLFESFFPYQVTERGCALTFSFDYQPNPEETLLQQNGTQEEIKCMDQIKKIETTGCNQEITSFEINLKEKKYQEDFNPLVRGCSCYCCKNHTRAYIHHLLVTNELLAGVLLMMHNFEHYFGFFHYIREALKSDKLAQLKELIHRQAS [QTRTD1] | 54.6 °C | 54.3 °C | -0.121 | 0.116 | -0.725 | -2.32
MKLWVSALLMAWFGVLSCVQAEFFTSIGHMTDLIYAEKELVQSLKEYILVEEAKLSKIKSWANKMEALTSKSAADAEGYLAHPVNAYKLVKRLNTDWPALEDLVLQDSAAGFIANLSVQRQFFPTDEDEIGAAKALMRLQDTYRLDPGTISRGELPGTKYQAMLSVDDCFGMGRSAYNEGDYYHTVLWMEQVLKQLDAGEEATTTKSQVLDYLSYAVFQLGDLHRALELTRRLLSLDPSHERAGGNLRYFEQLLEEEREKTLTNQTEAELATPEGIYERPVDYLPERDVYESLCRGEGVKLTPRRQKRLFCRYHHGNRAPQLLIAPFKEEDEWDSPHIVRYYDVMSDEEIERIKEIAKPKLARATVRDPKTGVLTVASYRVSKSSWLEEDDDPVVARVNRRMQHITGLTVKTAELLQVANYGVGGQYEPHFDFSRNDERDTFKHLGTGNRVATFLNYMSDVEAGGATVFPDLGAAIWPKKGTAVFWYNLLRSGEGDYRTRHAACPVLVGCKWVSNKWFHERGQEFLRPCGSTEVD [P4HA2] | 54.2 °C | 54.1 °C | -0.0711 | 0.0555 | 2.83 | 4.61
MKMKLFQTICRQLRSSKFSVESAALVAFSTSSYSCGRKKKVNPYEEVDQEKYSNLVQSVLSSRGVAQTPGSVEEDALLCGPVSKHKLPNQGEDRRVPQNWFPIFNPERSDKPNASDPSVPLKIPLQRNVIPSVTRVLQQTMTKQQVFLLERWKQRMILELGEDGFKEYTSNVFLQGKRFHEALESILSPQETLKERDENLLKSGYIESVQHILKDVSGVRALESAVQHETLNYIGLLDCVAEYQGKLCVIDWKTSEKPKPFIQSTFDNPLQVVAYMGAMNHDTNYSFQVQCGLIVVAYKDGSPAHPHFMDAELCSQYWTKWLLRLEEYTEKKKNQNIQKPEYSE [MGME1] | 52.9 °C | 53.5 °C | 0.0664 | 0.384 | -0.736 | -1.05
MKPSGEDQAALAAGPWEECFQAAVQLALRAGQIIRKALTEEKRVSTKTSAADLVTETDHLVEDLIISELRERFPSHRFIAEEAAASGAKCVLTHSPTWIIDPIDGTCNFVHRFPTVAVSIGFAVRQELEFGVIYHCTEERLYTGRRGRGAFCNGQRLRVSGETDLSKALVLTEIGPKRDPATLKLFLSNMERLLHAKAHGVRVIGSSTLALCHLASGAADAYYQFGLHCWDLAAATVIIREAGGIVIDTSGGPLDLMACRVVAASTREMAMLIAQALQTINYGRDDEK [IMPA2] | 58.2 °C | 60.1 °C | -0.261 | 0.109 | -0.528 | -0.16
MKVVNLKQAILQAWKERWSDYQWAINMKKFFPKGATWDILNLADALLEQAMIGPSPNPLILSYLKYAISSQMVSYSSVLTAISKFDDFSRDLCVQALLDIMDMFCDRLSCHGKAEECIGLCRALLSALHWLLRCTAASAERLREGLEAGTPAAGEKQLAMCLQRLEKTLSSTKNRALLHIAKLEEASSWTAIEHSLLKLGEILANLSNPQLRSQAEQCGTLIRSIPTMLSVHAEQMHKTGFPTVHAVILLEGTMNLTGETQSLVEQLTMVKRMQHIPTPLFVLEIWKACFVGLIESPEGTEELKWTAFTFLKIPQVLVKLKKYSHGDKDFTEDVNCAFEFLLKLTPLLDKADQRCNCDCTNFLLQECGKQGLLSEASVNNLMAKRKADREHAPQQKSGENANIQPNIQLILRAEPTVTNILKTMDADHSKSPEGLLGVLGHMLSGKSLDLLLAAAAATGKLKSFARKFINLNEFTTYGSEESTKPASVRALLFDISFLMLCHVAQTYGSEVILSESRTGAEVPFFETWMQTCMPEEGKILNPDHPCFRPDSTKVESLVALLNNSSEMKLVQMKWHEACLSISAAILEILNAWENGVLAFESIQKITDNIKGKVCSLAVCAVAWLVAHVRMLGLDEREKSLQMIRQLAGPLFSENTLQFYNERVVIMNSILERMCADVLQQTATQIKFPSTGVDTMPYWNLLPPKRPIKEVLTDIFAKVLEKGWVDSRSIHIFDTLLHMGGVYWFCNNLIKELLKETRKEHTLRAVELLYSIFCLDMQQVTLVLLGHILPGLLTDSSKWHSLMDPPGTALAKLAVWCALSSYSSHKGQASTRQKKRHREDIEDYISLFPLDDVQPSKLMRLLSSNEDDANILSSPTDRSMSSSLSASQLHTVNMRDPLNRVLANLFLLISSILGSRTAGPHTQFVQWFMEECVDCLEQGGRGSVLQFMPFTTVSELVKVSAMSSPKVVLAITDLSLPLGRQVAAKAIAAL [MED24] | 50.8 °C | 52.2 °C | 0.0385 | -0.322 | 1.11 | 1.86
MKYILVTGGVISGIGKGIIASSIGTILKSCGLRVTAIKIDPYINIDAGTFSPYEHGEVFVLNDGGEVDLDLGNYERFLDINLYKDNNITTGKIYQHVINKERRGDYLGKTVQVVPHITDAVQEWVMNQAKVPVDGNKEEPQICVIELGGTIGDIEGMPFVEAFRQFQFKAKRENFCNIHVSLVPQLSATGEQKTKPTQNSVRALRGLGLSPDLIVCRSSTPIEMAVKEKISMFCHVNPEQVICIHDVSSTYRVPVLLEEQSIVKYFKERLHLPIGDSASNLLFKWRNMADRYERLQKICSIALVGKYTKLRDCYASVFKALEHSALAINHKLNLMYIDSIDLEKITETEDPVKFHEAWQKLCKADGILVPGGFGIRGTLGKLQAISWARTKKIPFLGVCLGMQLAVIEFARNCLNLKDADSTEFRPNAPVPLVIDMPEHNPGNLGGTMRLGIRRTVFKTENSILRKLYGDVPFIEERHRHRFEVNPNLIKQFEQNDLSFVGQDVDGDRMEIIELANHPYFVGVQFHPEFSSRPMKPSPPYLGLLLAATGNLNAYLQQGCKLSSSDRYSDASDDSFSEPRIAELEIS [CTPS2] | 57.1 °C | 57.2 °C | -0.0719 | 0.0287 | -2.15 | -1.98
MLAFAARTVVKPLGFLKPFSLMKASSRFKAHQDALPRLPVPPLQQSLDHYLKALQPIVSEEEWAHTKQLVDEFQASGGVGERLQKGLERRARKTENWLSEWWLKTAYLQYRQPVVIYSSPGVMLPKQDFVDLQGQLRFAAKLIEGVLDFKVMIDNETLPVEYLGGKPLCMNQYYQILSSCRVPGPKQDTVSNFSKTKKPPTHITVVHNYQFFELDVYHSDGTPLTADQIFVQLEKIWNSSLQTNKEPVGILTSNHRNSWAKAYNTLIKDKVNRDSVRSIQKSIFTVCLDATMPRVSEDVYRSHVAGQMLHGGGSRLNSGNRWFDKTLQFIVAEDGSCGLVYEHAAAEGPPIVTLLDYVIEYTKKPELVRSPLVPLPMPKKLRFNITPEIKSDIEKAKQNLSIMIQDLDITVMVFHHFGKDFPKSEKLSPDAFIQMALQLAYYRIYGQACATYESASLRMFHLGRTDTIRSASMDSLTFVKAMDDSSVTEHQKVELLRKAVQAHRGYTDRAIRGEAFDRHLLGLKLQAIEDLVSMPDIFMDTSYAIAMHFHLSTSQVPAKTDCVMFFGPVVPDGYGVCYNPMEAHINFSLSAYNSCAETNAARLAHYLEKALLDMRALLQSHPRAKL [CRAT] | 49.4 °C | 49.4 °C | -0.142 | -0.0625 | 1.13 | 1.4
MLAVHFDKPGGPENLYVKEVAKPSPGEGEVLLKVAASALNRADLMQRQGQYDPPPGASNILGLEASGHVAELGPGCQGHWKIGDTAMALLPGGGQAQYVTVPEGLLMPIPEGLTLTQAAAIPEAWLTAFQLLHLVGNVQAGDYVLIHAGLSGVGTAAIQLTRMAGAIPLVTAGSQKKLQMAEKLGAAAGFNYKKEDFSEATLKFTKGAGVNLILDCIGGSYWEKNVNCLALDGRWVLYGLMGGGDINGPLFSKLLFKRGSLITSLLRSRDNKYKQMLVNAFTEQILPHFSTEGPQRLLPVLDRIYPVTEIQEAHKYMEANKNIGKIVLELPQ [TP53I3] | 58.7 °C | 57.3 °C | -0.199 | 0.373 | -2.64 | -1.51
MLCWGNASFGQLGLGGIDEEIVLEPRKSDFFINKRVRDVGCGLRHTVFVLDDGTVYTCGCNDLGQLGHEKSRKKPEQVVALDAQNIVAVSCGEAHTLALNDKGQVYAWGLDSDGQLGLVGSEECIRVPRNIKSLSDIQIVQVACGYYHSLALSKASEVFCWGQNKYGQLGLGTDCKKQTSPQLLKSLLGIPFMQVAAGGAHSFVLTLSGAIFGWGRNKFGQLGLNDENDRYVPNLLKSLRSQKIVYICCGEDHTAALTKEGGVFTFGAGGYGQLGHNSTSHEINPRKVFELMGSIVTEIACGRQHTSAFVPSSGRIYSFGLGGNGQLGTGSTSNRKSPFTVKGNWYPYNGQCLPDIDSEEYFCVKRIFSGGDQSFSHYSSPQNCGPPDDFRCPNPTKQIWTVNEALIQKWLSYPSGRFPVEIANEIDGTFSSSGCLNGSFLAVSNDDHYRTGTRFSGVDMNAARLLFHKLIQPDHPQISQQVAASLEKNLIPKLTSSLPDVEALRFYLTLPECPLMSDSNNFTTIAIPFGTALVNLEKAPLKVLENWWSVLEPPLFLKIVELFKEVVVHLLKLYKIGIPPSERRIFNSFLHTALKVLEILHRVNEKMGQIIQYDKFYIHEVQELIDIRNDYINWVQQQAYGMDVNHGLTELADIPVTICTYPFVFDAQAKTTLLQTDAVLQMQMAIDQAHRQNVSSLFLPVIESVNPCLILVVRRENIVGDAMEVLRKTKNIDYKKPLKVIFVGEDAVDAGGVRKEFFLLIMRELLDPKYGMFRYYEDSRLIWFSDKTFEDSDLFHLIGVICGLAIYNCTIVDLHFPLALYKKLLKKKPSLDDLKELMPDVGRSMQQLLDYPEDDIEETFCLNFTITVENFGATEVKELVLNGADTAVNKQNRQEFVDAYVDYIFNKSVASLFDAFHAGFHKVCGGKVLLLFQPNELQAMVIGNTNYDWKELEKNTEYKGEYWAEHPTIKIFWEVFHELPLEKKKQFLLFLTGSDRIPILGMKSLKLVIQSTGGGEEYLPVSHTCFNLLDLPKYTEKETLRSKLIQAIDHNEGFSLI [HERC4] | 51.4 °C | 51 °C | -0.179 | -0.169 | -0.179 | -0.361

Reference: the supplement of paper PMC5998384
